Experimental data taken from patent US5336615.

Target: human plasminogen (human) (UniProt P00747)

- u-PA activity (mPU/µg cell protein): 4.9
Substance: bovine urokinase-type plasminogen activator (u-PA) (from UniProt Q05589) (enzyme)
